The text below walks through data of patent US20200041497, “ANALYTE DETECTION METHOD” (IMPERIAL COLLEGE INNOVATIONS LIMITED, published 2020).

The target in series [1] is T1, alpha-thrombin (Homo sapiens, UniProt P00734;P00734 P00734:328-363,P00734:364-622). Kind of series: nanopore translocation on lambda-DNA carrier; 100 mM KCl, 10 mM Tris, 1 mM EDTA pH 8.
Series [2] addresses acetylcholinesterase (AChE) (UniProt O42275 O42275:24-633). Nature of the series: EMSA; AChE 660 nM, modified aptamer 0-5000 nM; 2.7 mM KCl, 4 mM MgCl2 PBS pH 7.4, 1 h. The note with it: tags: Sigma-Aldrich, UK; M.W. 280 kDa as stated; chain copies: 4; aptamer with extension hybridised to lambda-DNA 3' end. The protocol: FIG. 20: Electrophoretic mobility shift assay (EMSA) to confirm the binding of the aptamers to thrombin and AChE targets. All gels shown above include a 25 bp ladder and indicated as M in the gel. (i) Thrombin (750 nM) was incubated with different concentration of modified TBA aptamer (top left) ranging from 0-5000 nM in 140 mM NaCl, 20 mM MgCl2, 20 mM PBS buffer pH 7.4 for 45 mins. The 7 lanes on the gel represent the following concentrations of aptamer (from left to right): 0, 50, 100, 250, 500, 1000 and 5000 nM. The samples were then loaded on a 10% native polyacrylamide cast gel and ran for 75 min at 80V and stained with SYBR gold and imaged under UV. […] (ii) modified TBA (200 nM) was then incubated with different concentration of thrombin in the same binding buffer as (i) for 45 min. The […] consist of different thrombin concentration from left to right: 0, 250, 500, 1000, 1500, 2500, 5000 and 7500 nM. The samples were then loaded to a 10% native polyacrylamide cast gels and ran for 75 min at 80V and stained with SYBR gold and imaged. (iii) AChE (660 nM) was incubated with different concentration of modified AChE aptamer ranging from 0-5000 nM in 2.7 mM KCl, 4 mM MgCl2 PBS buffer pH 7.4 for 1 hour. […]
On the technique in general: A gel shift assay detects complexes by their altered migration in electrophoresis.

The target in series [3] is T1, alpha-thrombin. Kind of series: EMSA; 200 nM TBA, 0-500 nM thrombin; 50 mM Tris, 140 mM NaCl, 1 mM MgCl2 pH 7.4.

Sequence of acetylcholinesterase (AChE) (O42275 24-633, one chain of several): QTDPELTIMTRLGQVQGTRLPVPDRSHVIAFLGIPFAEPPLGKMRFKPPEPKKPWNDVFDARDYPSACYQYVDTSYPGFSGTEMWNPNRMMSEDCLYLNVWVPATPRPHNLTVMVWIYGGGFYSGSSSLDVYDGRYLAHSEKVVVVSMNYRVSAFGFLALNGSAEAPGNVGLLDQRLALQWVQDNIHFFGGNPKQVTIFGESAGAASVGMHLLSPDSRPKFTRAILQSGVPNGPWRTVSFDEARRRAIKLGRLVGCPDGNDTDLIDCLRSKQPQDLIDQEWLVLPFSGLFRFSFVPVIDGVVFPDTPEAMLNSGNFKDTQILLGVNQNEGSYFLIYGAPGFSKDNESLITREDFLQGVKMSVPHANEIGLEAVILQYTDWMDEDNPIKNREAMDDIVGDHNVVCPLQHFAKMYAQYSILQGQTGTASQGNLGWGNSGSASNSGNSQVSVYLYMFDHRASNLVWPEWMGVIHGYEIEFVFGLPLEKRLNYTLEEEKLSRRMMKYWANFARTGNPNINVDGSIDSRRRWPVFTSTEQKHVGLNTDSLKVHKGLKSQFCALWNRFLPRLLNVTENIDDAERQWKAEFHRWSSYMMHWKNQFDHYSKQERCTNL

B1: TBA detection probe iii (69-mer) (ssDNA)
DNA: GGTTGGTGTGGTTGGTTTTTTTTTGTCTTTTTTTTTTTTCTGTTTTTAAAAACTTACGCACGACACCTT
B1: the binding result with alpha-thrombin [1] is “binds”.

B2: AChE detection probe (75-mer) (ssDNA)
DNA: GGTTGACTGTAGCTCTGGCAGACGTAGTGTGAAGGTACCGGGCGGCGACCTAAGGTGTCGTGCGTAAGTTTTTAA
B2: the binding result in series [2] is given as “binds”.

Regarding GGTTGGTGTGGTTGG (ssDNA) [TBA 15-mer], the binding result with alpha-thrombin [3] is “binds”.

B3: TBA detection probe ii (51-mer) (ssDNA)
DNA: GGTTGGTGTGGTTGGGGGCGGCGACCTAAGGTGTCGTGCGTAAGTTTTTAA
As for B3, in the series with alpha-thrombin [1], the binding result is listed as “binds”.
